Results published in article PMC11219989.

Legend:
[1] = target: T1, unknown natural tumor antigen of the autologous tumor organoids of patient CRC3 peptide on (human); experiment: CD137 sort of CD8+ oeT cells after 24 h restimulation with autologous tumor organoids (cells that express the antigen), single-cell RT-PCR; 1.3% in TIL alone; ex vivo sorted cells; details: chains alpha TRAV10*01 TRAJ16*02 CDR3:beta TRBV10-3*02 TRBJ2-1*01 CDR3
[2] = target: T2, unknown natural tumor antigen of the autologous tumor organoids of patient CRC4 peptide on (human); experiment: CD137 sort of CD8+ oeT cells after 24 h restimulation with autologous tumor organoids (cells that express the antigen), single-cell RT-PCR; 0% in TIL alone; ex vivo sorted cells
[3] = target: T3, unknown natural tumor antigen of the autologous tumor organoids of patient CRC2 peptide on (human); experiment: CD137 sort of CD8+ oeT cells after 24 h restimulation with autologous tumor organoids (cells that express the antigen), single-cell RT-PCR; 0.5% in TIL alone; ex vivo sorted cells
[4] = target: T3, unknown natural tumor antigen of the …; experiment: CD137 sort of CD8+ oeT cells after 24 h restimulation with autologous tumor organoids (cells that express the antigen), single-cell RT-PCR; 2.8% in TIL alone; ex vivo sorted cells; details: chains alpha TRAV23/DV6*01 TRAJ45*01 CDR3:beta TRBV9*01 TRBJ2-1*01 CDR3
[5] = target: T4, unknown natural tumor antigen of the autologous tumor organoids of patient CRC1 peptide on (human); experiment: CD137 sort of CD8+ oeT cells after 24 h restimulation with autologous tumor organoids (cells that express the antigen), single-cell RT-PCR; 1.2% in TIL alone; ex vivo sorted cells; details: chains alpha TRAV36/DV7*04 TRAJ30*01 CDR3:beta TRBV6-5*01 TRBJ2-2*01 CDR3
[6] = target: T4, unknown natural tumor antigen of the …; experiment: CD137 sort of CD8+ oeT cells after 24 h restimulation with autologous tumor organoids (cells that express the antigen), single-cell RT-PCR; 3.6% in TIL alone; ex vivo sorted cells; details: chains alpha TRAV35*02 TRAJ10*01 CDR3:beta TRBV28*01 TRBJ2-2*01 CDR3
[7] = target: T4, unknown natural tumor antigen of the …; experiment: CD137 sort of CD8+ oeT cells after 24 h restimulation with autologous tumor organoids (cells that express the antigen), single-cell RT-PCR; 2.5% in TIL alone; ex vivo sorted cells; details: chains alpha TRAV24*01 TRAJ12*01 CDR3:beta TRBV28*01 TRBJ1-2*01 CDR3
[8] = target: T3, unknown natural tumor antigen of the …; experiment: CD137 sort of CD8+ oeT cells after 24 h restimulation with autologous tumor organoids (cells that express the antigen), single-cell RT-PCR; 1.1% in TIL alone; ex vivo sorted cells
[9] = target: T2, unknown natural tumor antigen of the …; experiment: CD137 sort of CD8+ oeT cells after 24 h restimulation with autologous tumor organoids (cells that express the antigen), single-cell RT-PCR; 2.4% in TIL alone; ex vivo sorted cells; details: chains alpha TRAV20*01 TRAJ4*01 CDR3:beta TRBV12-3*01 TRBJ1-5*01 CDR3
[10] = target: T1, unknown natural tumor antigen of the …; experiment: CD137 sort of CD8+ oeT cells after 24 h restimulation with autologous tumor organoids (cells that express the antigen), single-cell RT-PCR; 0.4% in TIL alone; ex vivo sorted cells; details: chains alpha TRAV8-6*02 TRAJ20*01 CDR3:beta TRBV6-1*01 TRBJ1-3*01 CDR3
[11] = target: T1, unknown natural tumor antigen of the …; experiment: CD137 sort of CD8+ oeT cells after 24 h restimulation with autologous tumor organoids (cells that express the antigen), single-cell RT-PCR; 0% in TIL alone; ex vivo sorted cells; details: chains alpha TRAV10*01 TRAJ4*01 CDR3:beta TRBV9*01 TRBJ1-2*01 CDR3
[12] = target: T1, unknown natural tumor antigen of the …; experiment: CD137 sort of CD8+ oeT cells after 24 h restimulation with autologous tumor organoids (cells that express the antigen), single-cell RT-PCR; 3% in TIL alone; ex vivo sorted cells; details: chains alpha TRAV14/DV4*01 TRAJ45*01 CDR3:beta TRBV20-1*01 TRBJ2-1*01 CDR3
[13] = target: T4, unknown natural tumor antigen of the …; experiment: CD137 sort of CD8+ oeT cells after 24 h restimulation with autologous tumor organoids (cells that express the antigen), single-cell RT-PCR; 4.3% in TIL alone; ex vivo sorted cells; details: chains alpha TRAV35*02 TRAJ10*01 CDR3:beta TRBV6-1*01 TRBJ1-2*01 CDR3

B1: TCR12 (peptide)
chain 1: VSGFSDGQKLL
chain 2: ATTKTGERPDEQF
B1 was tested, and the frequency among sorted CD8+CD137+ PDO(T)-oeT cells [1] was 8%.

B2: TCR18 (peptide)
chain 1: AVRDEGARLM
chain 2: ASSIFSGTGGADTQY
In the case of B2, the frequency among sorted CD8+CD137+ PDO(T)-oeT cells ([2]; chains alpha TRAV3*01 TRAJ31*01 CDR3:beta TRBV9*01 TRBJ2-3*01 CDR3) is reported as 10.3%.

B3: TCR10 (peptide)
chain 1: AASPPGGSQGNLI
chain 2: ASSHRTSSRGEQF
B3 gave a frequency among sorted CD8+CD137+ PDO(T)-oeT cells ([3]; chains alpha TRAV13-1*01 TRAJ42*01 CDR3:beta TRBV4-1*01 TRBJ2-1*01 CDR3) of 3.1%.

B4: TCR8 (peptide)
chain 1: ALKAGGGASKLT
chain 2: ASSVGGGVDEQF
B4 showed a frequency among sorted CD8+CD137+ PDO(T)-oeT cells [4] of 9.3%.

B5: TCR5 (peptide)
chain 1: AVSRDDKII
chain 2: ASSYVGNTGELF
Work on B5 yielded a frequency among sorted CD8+CD137+ PDO(T)-oeT cells [5] of 5%.

B6: TCR2 (peptide)
chain 1: AGVTGGGNKLT
chain 2: ASSLTSASGELF
B6 gave a frequency among sorted CD8+CD137+ PDO(T)-oeT cells [6] of 17.8%.

B7: TCR3 (peptide)
chain 1: APWMDSSYKLI
chain 2: ASSIGGHDGYT
B7 showed a frequency among sorted CD8+CD137+ PDO(T)-oeT cells [7] of 6.7%.

B8: TCR19 (peptide)
chain 1: AVGRGYGQNFV
chain 2: ASSQDGGLNEKLF
Work on B8 yielded a frequency among sorted CD8+CD137+ PDO(T)-oeT cells ([2]; chains alpha TRAV22*01 TRAJ26*01 CDR3:beta TRBV4-3*01 TRBJ1-4*01 CDR3) of 7.7%.

B9: TCR6 (peptide)
chain 1: AVGDNFNKFY
chain 2: ASSYVGNTGELF
Work on B9 yielded a frequency among sorted CD8+CD137+ PDO(T)-oeT cells ([8]; chains alpha TRAV8-3*01 TRAJ21*01 CDR3:beta TRBV28*01 TRBJ2-2*01 CDR3) of 13.4%.

B10: TCR17 (peptide)
chain 1: AVFSGGYNKLI
chain 2: ASSLEFYSNQPQH
For B10, the frequency among sorted CD8+CD137+ PDO(T)-oeT cells [9] was 13.5%.

B11: TCR15 (peptide)
chain 1: AVSGRSNDYKLS
chain 2: ASSEKRQGAGNTIY
B11 showed a frequency among sorted CD8+CD137+ PDO(T)-oeT cells [10] of 3%.

B12: TCR14 (peptide)
chain 1: VVSFSGGYNKLI
chain 2: ASSVGDRDYGYT
B12 gave a frequency among sorted CD8+CD137+ PDO(T)-oeT cells [11] of 4%.

B13: TCR9 (peptide)
chain 1: AVRGTLSGGSYIPT
chain 2: ASSATSASGELF
B13 was tested, and the frequency among sorted CD8+CD137+ PDO(T)-oeT cells ([8]; chains alpha TRAV1-2*01 TRAJ6*01 CDR3:beta TRBV28*01 TRBJ2-2*01 CDR3) was 8.2%.

B14: TCR7 (peptide)
chain 1: AMREGADSWGKFQ
chain 2: ASSLHGRGDEKLF
For B14, the frequency among sorted CD8+CD137+ PDO(T)-oeT cells ([3]; chains alpha TRAV14/DV4*03 TRAJ24*03 CDR3:beta TRBV28*01 TRBJ1-4*01 CDR3) was 12.4%.

B15: TCR20 (peptide)
chain 1: AENMGFQKLV
chain 2: AWTQGANGYT
B15 was tested, and the frequency among sorted CD8+CD137+ PDO(T)-oeT cells ([2]; chains alpha TRAV13-2*01 TRAJ8*01 CDR3:beta TRBV30*01 TRBJ1-2*01 CDR3) was 7.1%.

B16: TCR13 (peptide)
chain 1: ANDSGGGADGLT
chain 2: SARGLLGGRAREQF
For B16, the frequency among sorted CD8+CD137+ PDO(T)-oeT cells [12] was 4%.

B17: TCR1 (peptide)
chain 1: AGVTGGGNKLT
chain 2: ASSEGTGFYGYT
B17 was tested, and the frequency among sorted CD8+CD137+ PDO(T)-oeT cells [13] was 25.6%.
